Reference: patent US10138280B2, “Polypeptides targeting glycosylated MUC2 proteins, methods of synthesis, their nucleic acids and uses thereof” (INSTITUT PASTEUR, priority 2011, dated 2018)

Experiments:
guinea pig colonic mucus = assay: Mucus staining on fixed tissues, guinea pig colon; details: fixed tissue, 1 μg/mL
Description: FIGS. 11A-11C. Mucus staining using Cy5-MUB70 on fixed tissues. (FIG. 11A) Guinea pig colon, (FIG. 11B) rabbit ileum and (FIG. 11C) mouse colon were fixed in PFA 4%. Immunofluorescent staining was performed using Cy5-MUB70 (1 μg/mL) (blue). Actin is stained in red (Phall.-RRX), Muc2 is stained in green (α-Muc2). Observations were performed using a confocal microscope. Bar is 50 μm.
Ex vivo human colon samples were obtained from Dr. E. Labruyère (Institut Pasteur) and tissue processing was performed as described previously and stored in serum free RMPI media (surgical procedure is described herein). Human mucinous carcinoma formamide fixed samples were obtained from Dr. T. Lazure (Hôpitaux Universitaires Paris-Sud, Kremlin-Bicêtre) and Pr. I. Sobhani (Hôpital Henri Mondor, Créteil). Rabbit colon and ileum samples were collected on naïve New Zealand white rabbits weighting 2.5-3 kg and fixed in PFA 3%. Same procedure was applied on intestine samples collected on guinea pigs (Charles River) and C57/B6 mice (Janvier).
Following PFA 4% or Carnoy fixation, as indicated, samples were washed in PBS, incubated at 4° C. in PBS containing 12% sucrose for 90 min, then in PBS with 18% sucrose overnight, and frozen in OCT (Sakura) on dry ice. 7 μm sections were obtained using a cryostat CM-3050 (Leica). […]

[1] = molecular target: T1, human colonic mucus and goblet cells (Homo sapiens, UniProt Q02817); assay: Fluorescent staining of healthy human colon, formol fixed, paraffin embedded samples
T1 construct: Segments of human colon (ascending, descending and sigmoid colon) were obtained from fully informed patients undergoing surgery; from tissue; host or cells: healthy human colon segments (live explants, mucus collected from them, Carnoy- or formol-fixed sections)
Description: FIG. 22. Schematic description of the Cy5-MUB40-1, Cy5-MUB40-2, Cy5-MUB40-3, Cy5-MUB40-4 peptides (SEQ ID NOS 62 to 65). Fluorescent staining of human colonic mucus was performed by the addition of 1 μg/mL of the corresponding Cy5-conjugated peptides with Phalloidin-RRX (1:100) on formol fixed, paraffin embedded samples. Image acquisition was performed using a fluorescent confocal microscope (see Methods).
FIG. 23 Comparative staining analysis of human colonic goblet cells using Cy5-MUB70 and Cy5-MUB40-1. Fluorescent staining of human colonic mucus was performed by the addition of 1 μg/mL of the corresponding Cy5-conjugated peptides with Phalloidin-RRX (1:100) on formol fixed, paraffin embedded samples. Image acquisition was performed using a fluorescent confocal microscope (see Methods).
FIGS. 24A-24B. Comparative human colonic mucus staining using MUB70-Cy5 on healthy tissues and mucinous carcinomas (Coic et al, JBC, 2012 (41)). Fluorescent staining of human colonic mucus was performed by the addition of 1 μg/mL of the corresponding Cy5-conjugated peptides with Phalloidin-RRX (1:100) on formol fixed, paraffin embedded samples. Image acquisition was performed using a fluorescent confocal microscope (see Methods).
As colonic mucinous carcinomas are characterized by abnormal overproduction of Muc2 in the colon mucosa (40), the inventors have hypothesized that Cy5-MUB70 could be used as a novel fluorescent marker for the diagnosis of this pathology. […] As shown previously on a healthy colon (FIG. 3B), the luminal mucus secreted fraction is detected by Cy5-MUB70 (FIG. 24A, top panel). […] This observation might be the consequence of a higher level of mucus compaction, resulting in a lower accessibility for MUB70 to bind Muc2. […] Cy5-MUB70 has been validated as a potent innovative diagnostic tool for colonic mucinous carcinoma detection and might be optimized with alternative markers (e.g. biotin) for practical clinical applications.

[2] = test system: human neutrophil (PMN) granules; assay: Human neutrophil (PMN) granule staining; assay type: cell-based
Description: FIG. 14. Staining of individual neutrophiles (white blood cells) in human blood sample. Cy5-MUB70 was incubated on ethanol 100% fixed blood sample. […] (Details are provided on the Figure). […] In particular, granules staining is achieved.
FIG. 15. Staining of individual neutrophiles (white blood cells) purified from fresh human blood sample. Cy5-MUB70 was incubated on PFA 4% fixed neutrophiles (PFA treatment for 15 min, wash 3 times in PBS). Signal was detected as dots distributed in neutrophile cytoplasms. (Staining with Dapi 1:1000 and EB1C5 1:1000 in PBS+10% FCS+0.1% Saponin). […] In particular, granules staining is achieved.
FIG. 29. Identification of Muc2 in neutrophile granules using MUB70-Cy5. Human neutrophil (PMN) granule staining using Cy5-MUB70. PMN were purified from healthy donor blood samples and fixed in the presence of 4% PFA. Fluorescent staining of human colonic mucus was performed by the addition of 1 μg/mL of Cy5-MUB70 (Red) with Dapi (1:100) (Blue) and 1:200 anti-Muc2 antibody (Green). Image acquisition was performed using a fluorescent confocal microscope (see Methods).
FIG. 31. Identification of Muc2 in neutrophile granules. Human neutrophil (PMN) granule staining using Cy5-MUB40-1, Cy5-MUB40-2, Cy5-MUB40-3, Cy5-MUB40-4 peptides. Schematic description of the Cy5-conjugated peptides. PMN were purified from healthy donor blood samples and fixed in the presence of 4% PFA. Fluorescent staining of human colonic mucus was performed by the addition of 1 μg/mL of the Cy5-conjugated peptides (Green) with Dapi (1:100) (Blue) and Phalloidin-RRX (1:1000) (Red). Image acquisition was performed using a fluorescent confocal microscope (see Methods).
The invention has also proven to be useful for the monitoring of neutrophile degranulation events, in particular by using MUB70 and/or MUB40 polypeptides or polypeptides sharing identity with MUB70 and/or MUB40 polypeptides, or fragments thereof, for labelling neutrophile granule(s).

mucosal staining in healthy colon tissues ([1]; colonic mucosa of healthy colon tissues from the same patients): no mucosal staining was observed
luminal mucus secreted fraction staining in healthy colon ([1]; healthy colon, fixed): detected
goblet cells binding ([1]; human colonic goblet cells, fixed samples, 1 μg/mL): not recognized
B1: Cy5-MUB70: Cy5-labelled MUB70 polypeptide, labelled via Cy5 maleimide on N-terminal cysteine (conjugate)
peptide: CVHVQYIDGETDQMLRQDDLDGYTDETIPYSTAEGIKKFEGDGYELFKDNFPAGEKFDNDDTNDQFYTVIF
colonic mucus staining (guinea pig colonic mucus): confirmed
PMN granule staining ([2]; PMN purified from human blood, fixed in 4% PFA, 1 μg/mL): binding specifically a neutrophile granule component
neutrophile staining in human blood sample ([2]; ethanol 100% fixed blood sample): Signal was detected as diffused in neutrophile cytoplasm
